± gives the uncertainty stated by the source.

The results in this text go back to the Human Domainome abundance scans (Beltran et al. 2025).

B1: Kinesin-like protein KIF16B, residues 1213 to 1273; numbered along this chain, Q96L93 (parent)
chain: ETWTVFRRYSRFREMHKTLKLKYAELAALEFPPKKLFGNKDERVIAERRSHLEKYLRDFFS

In the data set the parent is B1. The experiment in a line: abundance fitness (aPCA) (normalised: wild type 0, dead -1); higher = more abundant; growth selection in yeast, the domain comes from the species named. To be noted: Homo sapiens.
For the variant ETWTVFRRYSRFREMHKTLKLKYAELAALEFPPKKLFGNKDERVIKERRSHLEKYLRDFFS [A46K], the abundance fitness came to 0.186 ± 0.073.

Take ETWTVFRRYSRFREMHKTLKLKYAELAALEFPPKKLFGNKDERVIEERRSHLEKYLRDFFS [A46E]: the abundance fitness is 0.037 ± 0.078.

Consider ETWTVFRRYSRFREMHKTLKLKYAELAALEFPPKKLFGNKDERVIRERRSHLEKYLRDFFS [A46R], for which the abundance fitness is 0.131 ± 0.041.

Regarding ETWTVFRRYSRFREMHKTLKLKYAELAALEFPPKKLFGNKDERVIVERRSHLEKYLRDFFS [A46V], the abundance fitness was -0.057 ± 0.054.

Regarding ETWTVFRRYSRFREMHKTLKLKYAELAALEFPPKKLFGNKDERVIWERRSHLEKYLRDFFS [A46W], the abundance fitness was -0.176 ± 0.089.

In the case of ETWTVFRRYSRFREMHKTLKLKYAELAALEFPPKKLFGNKDERVIGERRSHLEKYLRDFFS [A46G], the abundance fitness stood at 0.211 ± 0.044.

With ETWTVFRRYSRFREMHKTLKLKYAELAALEFPPKKLFGNKDERVITERRSHLEKYLRDFFS [A46T], the abundance fitness came out at 0.242 ± 0.068.

For ETWTVFRRYSRFREMHKTLKLKYAELAALEFPPKKLFGNKDERVIAEMRSHLEKYLRDFFS [R48M], the abundance fitness stood at 0.159 ± 0.083.

On to ETWTVFRRYSRFREMHKTLKLKYAELAALEFPPKKLFGNKDERVIAEIRSHLEKYLRDFFS [R48I], for which the abundance fitness is 0.123 ± 0.16.

Consider ETWTVFRRYSRFREMHKTLKLKYAELAALEFPPKKLFGNKDERVIAESRSHLEKYLRDFFS [R48S], for which the abundance fitness is -0.018 ± 0.056.

In the case of ETWTVFRRYSRFREMHKTLKLKYAELAALEFPPKKLFGNKDERVIAEDRSHLEKYLRDFFS [R48D], the abundance fitness was -0.186 ± 0.24.

With ETWTVFRRYSRFREMHKTLKLKYAELAALEFPPKKLFGNKDERVIAEFRSHLEKYLRDFFS [R48F], the abundance fitness is 0.087 ± 0.063.

For ETWTVFRRYSRFREMHKTLKLKYAELAALEFPPKKLFGNKDERVIAEERSHLEKYLRDFFS [R48E], the abundance fitness is -0.374 ± 0.082.

Regarding ETWTVFRRYSRFREMHKTLKLKYAELAALEFPPKKLFGNKDERVIAEWRSHLEKYLRDFFS [R48W], the abundance fitness worked out at 0.275 ± 0.072.

In the case of ETWTVFRRYSRFREMHKTLKLKYAELAALEFPPKKLFGNKDERVIAEYRSHLEKYLRDFFS [R48Y], the abundance fitness is -0.266 ± 0.16.

On to ETWTVFRRYSRFREMHKTLKLKYAELAALEFPPKKLFGNKDERVIAECRSHLEKYLRDFFS [R48C], for which the abundance fitness is -0.148 ± 0.13.

ETWTVFRRYSRFREMHKTLKLKYAELAALEFPPKKLFGNKDERVIAEVRSHLEKYLRDFFS [R48V]: the abundance fitness is -0.05 ± 0.064.

On to ETWTVFRRYSRFREMHKTLKLKYAELAALEFPPKKLFGNKDERVIAEGRSHLEKYLRDFFS [R48G], for which the abundance fitness was determined as 0.108 ± 0.047.

As to ETWTVFRRYSRFREMHKTLKLKYAELAALEFPPKKLFGNKDERVIAEKRSHLEKYLRDFFS [R48K], the abundance fitness was -0.061 ± 0.11.

As to ETWTVFRRYSRFREMHKTLKLKYAELAALEFPPKKLFGNKDERVIAETRSHLEKYLRDFFS [R48T], the abundance fitness is -0.363 ± 0.095.

As to ETWTVFRRYSRFREMHKTLKLKYAELAALEFPPKKLFGNKDERVIAEQRSHLEKYLRDFFS [R48Q], the abundance fitness was -0.291 ± 0.087.

Consider ETWTVFRRYSRFREMHKTLKLKYAELAALEFPPKKLFGNKDERVIAEPRSHLEKYLRDFFS [R48P], for which the abundance fitness worked out at 0.113 ± 0.11.

Regarding ETWTVFRRYSRFREMHKTLKLKYAELAALEFPPKKLFGNKDERVIAERRSGLEKYLRDFFS [H51G], the abundance fitness was found to be 0.248 ± 0.046.

Take ETWTVFRRYSRFREMHKTLKLKYAELAALEFPPKKLFGNKDERVIAERRSDLEKYLRDFFS [H51D]: the abundance fitness was -0.778 ± 0.22.

For the variant ETWTVFRRYSRFREMHKTLKLKYAELAALEFPPKKLFGNKDERVIAERRSALEKYLRDFFS [H51A], the abundance fitness was determined as 0.043 ± 0.07.

For ETWTVFRRYSRFREMHKTLKLKYAELAALEFPPKKLFGNKDERVIAERRSCLEKYLRDFFS [H51C], the abundance fitness was -0.359 ± 0.22.

ETWTVFRRYSRFREMHKTLKLKYAELAALEFPPKKLFGNKDERVIAERRSELEKYLRDFFS [H51E]: the abundance fitness was -0.379 ± 0.083.

In the case of ETWTVFRRYSRFREMHKTLKLKYAELAALEFPPKKLFGNKDERVIAERRNHLEKYLRDFFS [S50N], the abundance fitness is 0.05 ± 0.15.

As for ETWTVFRRYSRFREMHKTLKLKYAELAALEFPPKKLFGNKDERVIAERRFHLEKYLRDFFS [S50F], the abundance fitness was -0.117 ± 0.29.

For ETWTVFRRYSRFREMHKTLKLKYAELAALEFPPKKLFGNKDERVIAERRDHLEKYLRDFFS [S50D], the abundance fitness was -0.11 ± 0.14.

Take ETWTVFRRYSRFREMHKTLKLKYAELAALEFPPKKLFGNKDERVIAERRCHLEKYLRDFFS [S50C]: the abundance fitness was found to be 0.256 ± 0.098.

In the case of ETWTVFRRYSRFREMHKTLKLKYAELAALEFPPKKLFGNKDERVIAERRTHLEKYLRDFFS [S50T], the abundance fitness is -0.056 ± 0.1.

With ETWTVFRRYSRFREMHKTLKLKYAELAALEFPPKKLFGNKDERVIAERRKHLEKYLRDFFS [S50K], the abundance fitness is -0.133 ± 0.085.

As to ETWTVFRRYSRFREMHKTLKLKYAELAALEFPPKKLFGNKDERVIAERRQHLEKYLRDFFS [S50Q], the abundance fitness was -0.545 ± 0.21.

Consider ETWTVFRRYSRFREMHKTLKLKYAELAALEFPPKKLFGNKDERVIAERRAHLEKYLRDFFS [S50A], for which the abundance fitness is -0.213 ± 0.077.

In the case of ETWTVFRRYSRFREMHKTLKLKYAELAALEFPPKKLFGNKDERVIAERRGHLEKYLRDFFS [S50G], the abundance fitness is -0.1 ± 0.068.

Turning to ETWTVFRRYSRFREMHKTLKLKYAELAALEFPPKKLFGNKDERVIAERRVHLEKYLRDFFS [S50V], the abundance fitness is -0.36 ± 0.063.

In the case of ETWTVFRRYSRFREMHKTLKLKYAELAALEFPPKKLFGNKDERVIAERRRHLEKYLRDFFS [S50R], the abundance fitness is -0.301 ± 0.14.

In the case of ETWTVFRRYSRFREMHKTLKLKYAELAALEFPPKKLFGNKDERVIAERRYHLEKYLRDFFS [S50Y], the abundance fitness is -0.66 ± 0.23.

Regarding ETWTVFRRYSRFREMHKTLKLKYAELAALEFPPKKLFGNKDERVIAERRLHLEKYLRDFFS [S50L], the abundance fitness is -0.042 ± 0.062.

For the variant ETWTVFRRYSRFREMHKTLKLKYAELAALEFPPKKLFGNKDERVIAERRHHLEKYLRDFFS [S50H], the abundance fitness was -0.039 ± 0.15.

As for ETWTVFRRYSRFREMHKTLKLKYAELAALEFPPKKLFGNKDERVIAERRPHLEKYLRDFFS [S50P], the abundance fitness worked out at 0.045 ± 0.17.

As to ETWTVFRRYSRFREMHKTLKLKYAELAALEFPPKKLFGNKDERVIAERREHLEKYLRDFFS [S50E], the abundance fitness is -0.696 ± 0.12.

ETWTVFRRYSRFREMHKTLKLKYAELAALEFPPKKLFGNKDERVIAERRWHLEKYLRDFFS [S50W]: the abundance fitness was 0.117 ± 0.12.
